Assay results: publication PMC8625570 (2021)

How the values were obtained:
Assay in all cases: mGppNHp-bound
CDC42 Q74D [1] = target: T1, CDC42 Q74D (human, UniProt P60953 1-178, Q74D)
[2] = target: T2, RAC1 V85D/S88D (so in the source); residue 88 of RAC1 is Ala by the legend of Figure 2) (human, UniProt P63000 1-179, V85D | S88D (Ala-88 in RAC1))
RAC1 T25K/N26D [3] = target: T3, RAC1 T25K/N26D (human, UniProt P63000 1-179, T25K | N26D)
RAC1 Q74D [4] = target: T4, RAC1 Q74D (human, UniProt P63000 1-179, Q74D)
[5] = target: T5, CDC42 M45E/N52E (so in the source); residue 52 of CDC42 is given as T52 in the discussion) (human, UniProt P60953 1-178, M45E | N52E (T52 in CDC42))
CDC42 T25K/N26D [6] = target: T6, CDC42 T25K/N26D (human, UniProt P60953 1-178, T25K | N26D)
CDC42 V85D/S88D [7] = target: T7, CDC42 V85D/S88D (human, UniProt P60953 1-178, V85D | S88D)
[8] = target: T8, RHOA-to-RAC1 variant (RHOA K27T, D28N, E47M, E54N, D76Q) (human, UniProt P61586 1-181, K27T | D28N | E47M | E54N | D76Q)
RAC1 M45E/N52E [9] = target: T9, RAC1 M45E/N52E (human, UniProt P63000 1-179, M45E | N52E)
CDC42 (aa 1-178) [10] = target: T10, CDC42 (aa 1-178) (human, UniProt P60953 1-178)
RHOG (aa 1-178) [11] = target: T11, RHOG (aa 1-178) (human, UniProt P84095 1-178)
RAC3 (aa 1-192) [12] = target: T12, RAC3 (aa 1-192) (human, UniProt P60763 1-192)
RAC2 (aa 1-192) = RAC2 (aa 1-192) (human, UniProt P15153 1-192)
RAC1 (aa 1-179) [13] = target: T13, RAC1 (aa 1-179) (human, UniProt P63000 1-179)
CDC42 Q74D [14] = target: T1, CDC42 Q74D; remark: listed apart in the source
[15] = target: T2, RAC1 V85D/S88D (so in the source); residue 88 …; remark: listed apart in the source
RAC1 T25K/N26D [16] = target: T3, RAC1 T25K/N26D; remark: listed apart in the source
RAC1 Q74D [17] = target: T4, RAC1 Q74D; remark: listed apart in the source
[18] = target: T5, CDC42 M45E/N52E (so in the source); residue 52 …; remark: listed apart in the source
CDC42 T25K/N26D [19] = target: T6, CDC42 T25K/N26D; remark: listed apart in the source
CDC42 V85D/S88D [20] = target: T7, CDC42 V85D/S88D; remark: listed apart in the source
[21] = target: T8, RHOA-to-RAC1 variant (RHOA K27T, D28N, …); remark: listed apart in the source
RAC1 M45E/N52E [22] = target: T9, RAC1 M45E/N52E; remark: listed apart in the source
CDC42 (aa 1-178) [23] = target: T10, CDC42 (aa 1-178); remark: listed apart in the source
RHOG (aa 1-178) [24] = target: T11, RHOG (aa 1-178); remark: listed apart in the source
RAC3 (aa 1-192) [25] = target: T12, RAC3 (aa 1-192); remark: listed apart in the source
RAC1 (aa 1-179) [26] = target: T13, RAC1 (aa 1-179); remark: listed apart in the source

T6 sequence (P60953 1-178 T25K/N26D): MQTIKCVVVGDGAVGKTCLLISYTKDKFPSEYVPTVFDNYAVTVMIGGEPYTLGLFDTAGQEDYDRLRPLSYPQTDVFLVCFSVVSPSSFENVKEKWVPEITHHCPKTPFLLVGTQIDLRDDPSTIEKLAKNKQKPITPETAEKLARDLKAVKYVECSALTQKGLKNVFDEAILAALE
T7 sequence (P60953 1-178 V85D/S88D): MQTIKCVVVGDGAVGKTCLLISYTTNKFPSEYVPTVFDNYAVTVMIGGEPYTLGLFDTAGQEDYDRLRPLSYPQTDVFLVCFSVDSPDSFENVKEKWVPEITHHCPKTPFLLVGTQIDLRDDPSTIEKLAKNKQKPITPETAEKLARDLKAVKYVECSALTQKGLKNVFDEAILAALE
T1 sequence (P60953 1-178 Q74D): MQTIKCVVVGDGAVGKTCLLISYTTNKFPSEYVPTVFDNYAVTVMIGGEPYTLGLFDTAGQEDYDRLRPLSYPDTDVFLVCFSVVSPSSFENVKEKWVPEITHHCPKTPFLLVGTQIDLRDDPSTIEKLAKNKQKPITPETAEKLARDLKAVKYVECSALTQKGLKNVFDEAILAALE
T11 sequence (P84095 1-178): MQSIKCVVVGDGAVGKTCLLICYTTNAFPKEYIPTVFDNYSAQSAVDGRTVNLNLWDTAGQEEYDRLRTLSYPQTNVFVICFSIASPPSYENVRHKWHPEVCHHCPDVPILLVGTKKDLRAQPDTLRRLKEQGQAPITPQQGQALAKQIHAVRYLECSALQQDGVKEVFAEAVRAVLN
T10 sequence (P60953 1-178): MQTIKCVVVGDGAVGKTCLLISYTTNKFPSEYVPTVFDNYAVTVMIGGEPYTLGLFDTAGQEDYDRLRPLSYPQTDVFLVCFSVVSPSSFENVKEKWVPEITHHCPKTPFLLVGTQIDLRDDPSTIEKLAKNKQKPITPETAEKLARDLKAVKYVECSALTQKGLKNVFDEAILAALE
T5 sequence (P60953 other isoform, or with tags, fused parts or gaps M45E | N52E (T52 in CDC42) | M45E N52E): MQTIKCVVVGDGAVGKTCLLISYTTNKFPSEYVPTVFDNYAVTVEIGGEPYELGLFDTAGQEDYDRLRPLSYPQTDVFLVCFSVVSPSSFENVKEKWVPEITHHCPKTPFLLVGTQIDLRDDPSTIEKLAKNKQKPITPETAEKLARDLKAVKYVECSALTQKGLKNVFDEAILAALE
T8 sequence (P61586 1-181 K27T/D28N/E47M/E54N/D76Q): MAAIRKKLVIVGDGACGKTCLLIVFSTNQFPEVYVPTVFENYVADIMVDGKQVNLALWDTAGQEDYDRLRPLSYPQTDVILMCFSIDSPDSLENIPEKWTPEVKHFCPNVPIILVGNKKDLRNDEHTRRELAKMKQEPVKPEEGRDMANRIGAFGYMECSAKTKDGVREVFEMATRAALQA

koff (CDC42 Q74D [1]): 1.19 s⁻¹ | koff [2]: 2.84 s⁻¹ | koff (RAC1 T25K/N26D [3]): 2.01 s⁻¹ | koff (RAC1 Q74D [4]): 0.74 s⁻¹ | koff [5]: 0.95 s⁻¹ | koff (CDC42 T25K/N26D [6]): 0.48 s⁻¹ | koff (CDC42 V85D/S88D [7]): 0.88 s⁻¹ | koff [8]: 2.1 s⁻¹ | koff (RAC1 M45E/N52E [9]): 1.4 s⁻¹ | koff (CDC42 (aa 1-178) [10]): 0.39 s⁻¹ | koff (RHOG (aa 1-178) [11]): 0.56 s⁻¹ | koff (RAC3 (aa 1-192) [12]): 0.69 s⁻¹ | koff (RAC2 (aa 1-192)): 0.08 s⁻¹ | koff (RAC1 (aa 1-179) [13]): 0.65 s⁻¹ | Kd (CDC42 Q74D [14]): 1320 nM | Kd [15]: 10500 nM | Kd (RAC1 T25K/N26D [16]): 15300 nM | Kd (RAC1 Q74D [17]): 6100 nM | Kd [18]: 1230 nM | Kd (CDC42 T25K/N26D [19]): 920 nM | Kd (CDC42 V85D/S88D [20]): 1200 nM | Kd [21]: 1750 nM | Kd (RAC1 M45E/N52E [22]): 8200 nM | Kd (CDC42 (aa 1-178) [23]): 290 nM | Kd (RHOG (aa 1-178) [24]): 490 nM | Kd (RAC3 (aa 1-192) [25]): 450 nM | Kd (RAC1 (aa 1-179) [26]): 930 nM
B1: IQGAP1^C794 (C-terminal half of human IQGAP1 with the GRD, RGCT and CT domains) (domain or fragment)
chain: DPPMVVVRKFVHLLDQSDQDFQEELDLMKMREEVITLIRSNQQLENDLNLMDIKIGLLVKNKITLQDVVSHSKKLTKKNKEQLSDMMMINKQKGGLKALSKEKREKLEAYQHLFYLLQTNPTYLAKLIFQMPQNKSTKFMDSVIFTLYNYASNQREEYLLLRLFKTALQEEIKSKVDQIQEIVTGNPTVIKMVVSFNRGARGQNALRQILAPVVKEIMDDKSLNIKTDPVDIYKSWVNQMESQTGEASKLPYDVTPEQALAHEEVKTRLDSSIRNMRAVTDKFLSAIVSSVDKIPYGMRFIAKVLKDSLHEKFPDAGEDELLKIIGNLLYYRYMNPAIVAPDAFDIIDLSAGGQLTTDQRRNLGSIAKMLQHAASNKMFLGDNAHLSIINEYLSQSYQKFRRFFQTACDVPELQDKFNVDEYSDLVTLTKPVIYISIGEIINTHTLLLDHQDAIAPEHNDPIHELLDDLGEVPTIESLIGESSGNLNDPNKEALAKTEVSLTLTNKFDVPGDENAEMDARTILLNTKRLIVDVIRFQPGETLTEILETPATSEQEAEHQRAMQRRAIRDAKTPDKMKKSKSVKEDSNLTLQEKKEKIQTGLKKLTELGTVDPKNKYQELINDIARDIRNQRRYRQRRKAELVKLQQTYAALNSKATFYGEQVDYYKSYIKTCLDNLASKGKVSKKPREMKGKKSKKISLKYTAARLHEKGVLLEIEDLQVNQFKNVIFEISPTEEVGDFEVKAKFMGVQMETFMLHYQDLLQLQYEGVAVMKLFDRAKVNVNLLIFLLNKKFYGK
